Values belong to the binder of their own block, whether it stands above or below them.
Columns and labels:
[1] = molecular target: T1, human cadherin-17 (CDH17), endogenously expressed on human cancer cell lines (LS513, SNU-C1, PaTu8988s, … (human, UniProt Q12864 23-832)); assay: flow cytometry of the ADC on LS513 cells (CDH17+), 20 µg/ml
T1 construct: also called LS513 (Colon, CDH17+); HPAF2

[2] = molecular target: T1, human cadherin-17 (CDH17), endogenously …; assay: indirect flow cytometry (iQue) on LS513 cells (CDH17+), anti-His secondary antibody
Procedure: Bispecific antibodies and scFv fragments were assessed for their binding effect to CDH17 positive cells by an indirect flow cytometry assay iQue® (Sartorius, Gottingen, Germany). The asssays were performed with CDH17 positive LS513 cells or CDH17 negative M202 cells using the primary antibody and fluorochrome-labeled anti-His secondary antibody using the iQue® where FL4-H values acquired by iQue® software were reported.

[3] = molecular target: T1, human cadherin-17 (CDH17), endogenously …; assay: KinExA, cell-based, SNUC1 cells
[4] = molecular target: T2, human CDH17-mGFP fusion protein overexpressed on HEK293T cells (clone G11) (human, UniProt Q12864 23-832); assay: flow cytometry (iQue) on HEK293T CDH17 mGFP clone G11 (human), 1 µg Ab
T2 construct: also called HEK293T CDH17mGFP Clone G11; HEK293T Human CDH17mGFP G11; not shown: mGFP fluorescent protein fused to CDH17

[5] = molecular target: T1, human cadherin-17 (CDH17), endogenously …; assay: flow cytometry (iQue) on SNUC1 cells, 1 µg Ab
[6] = molecular target: T2, human CDH17-mGFP fusion protein …; assay: flow cytometry (iQue) on HEK293T CDH17 mGFP clone G11 (human), 0.2 µg Ab
[7] = molecular target: T3, rat CDH17 fused to moxGFP, overexpressed on HEK293T cells (rat, UniProt P55281 22-827); assay: flow cytometry (BD C6) on HEK293T Rat CDH17 moxGFP cells
T3 construct: whole, on cells; also called HEK293T Rat CDH17mGFP mass pop; rat CDH17-moxGFP
T3 sequence (P55281 22-827): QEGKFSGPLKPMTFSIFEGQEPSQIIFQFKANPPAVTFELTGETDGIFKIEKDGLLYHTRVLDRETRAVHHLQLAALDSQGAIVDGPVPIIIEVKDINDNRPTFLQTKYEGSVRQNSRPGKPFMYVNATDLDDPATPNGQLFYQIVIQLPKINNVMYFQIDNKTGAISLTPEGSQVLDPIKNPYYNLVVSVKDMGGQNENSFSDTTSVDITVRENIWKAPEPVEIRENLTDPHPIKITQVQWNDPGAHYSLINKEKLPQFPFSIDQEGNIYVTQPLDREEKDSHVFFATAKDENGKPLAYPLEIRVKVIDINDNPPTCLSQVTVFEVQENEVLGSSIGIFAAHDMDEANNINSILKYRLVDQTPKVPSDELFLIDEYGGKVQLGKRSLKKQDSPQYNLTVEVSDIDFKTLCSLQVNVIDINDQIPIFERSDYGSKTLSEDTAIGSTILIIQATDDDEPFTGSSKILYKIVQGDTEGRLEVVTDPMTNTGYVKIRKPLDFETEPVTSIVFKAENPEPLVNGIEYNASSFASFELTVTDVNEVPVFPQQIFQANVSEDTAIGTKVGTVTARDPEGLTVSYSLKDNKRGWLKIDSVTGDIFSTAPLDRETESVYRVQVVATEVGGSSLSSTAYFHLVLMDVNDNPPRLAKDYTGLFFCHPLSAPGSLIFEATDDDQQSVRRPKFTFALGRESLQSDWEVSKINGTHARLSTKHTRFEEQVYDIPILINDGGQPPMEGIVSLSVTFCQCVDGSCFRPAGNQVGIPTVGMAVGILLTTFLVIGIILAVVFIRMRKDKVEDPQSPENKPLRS
Procedure: (§1) To determine relative antigen binding strengths of the humanized antibodies, FACS assays were carried out as essentially described in Example 1. […] Using a BD Biosciences Accuri™ C6 Flow Cytometer (San Jose, CA), antibody binding based on Alexa Fluor® 647 fluorescence was measured in the FL4-H channel and fusion protein overexpression based on GFP fluorescence was measured in the FL1-H channel.

[8] = molecular target: T1, human cadherin-17 (CDH17), endogenously …; assay: flow cytometry (iQue) on LS513 cells, 0.2 µg Ab
[9] = molecular target: T1, human cadherin-17 (CDH17), endogenously …; assay: flow cytometry (iQue) on SNUC1 cells, 0.2 µg Ab
[10] = molecular target: T2, human CDH17-mGFP fusion protein …; assay: KinExA, cell-based, HEK293T human CDH17mGFP G11 (same value as r12)
Procedure: (§2) The cell-based antibody affinity (KD) of the anti-CDH17 antibodies was measured by KinExA 4000 (Sapidyne Instrument, Boise, Idaho). Briefly, HEK293T overexpressing CDH17-fluorescent protein fusion (i.e., human CDH17-mGFP, monkey CDH17-mGFP, mouse CDH17-mGFP or rat CDH17-mGFP) were detached with Versene and equilibrated with either 50 pM, 200 pM, 20 nM, or 50 nM antibody in 2% FBS/DMEM at 4° C. overnight. The cell concentration started at 5×10⁶ cells/mL or 1×10⁷ cells/mL and 2-fold serial dilutions were performed up to 10 points. The next day, the cells were centrifuged at 1500 rpm for 10 min and the supernatants were saved. […] In contrast, while the humanized anti-CDH17 antibody, 07-0653-h43, fails to bind mouse CDH17 protein, it binds rat CDH17 protein equally well as to human and monkey CDH17 protein such that its Kp is less than about 1 nM for human, monkey and rat CDH17 proteins with overlapping 95% confidence interval values.

[11] = molecular target: T2, human CDH17-mGFP fusion protein …; assay: KinExA, cell-based, HEK293T CDH17mGFP clone G11
Procedure: as §2

[12] = molecular target: T1, human cadherin-17 (CDH17), endogenously …; assay: flow cytometry (iQue) on LS513 cells, 1 µg Ab
[13] = molecular target: T1, human cadherin-17 (CDH17), endogenously …; assay: flow cytometry (iQue) on PATU8988S cells, 0.2 µg Ab
[14] = molecular target: T1, human cadherin-17 (CDH17), endogenously …; assay: flow cytometry (iQue) on PATU8988S cells, 1 µg Ab
[15] = molecular target: T4, recombinant CDH17 extracellular domain (ECD) with 6x His tag (human, UniProt Q12864 23-787); assay: ELISA on recombinant CDH17 ECD-6xHis
T4 construct: also called Recombinant CDH17 ECD-6xhis tag

[16] = molecular target: T2, human CDH17-mGFP fusion protein …; assay: flow cytometry on HEK293T human CDH17mGFP G11, 20 µg/ml
[17] = molecular target: T2, human CDH17-mGFP fusion protein …; assay: KinExA, cell-based, HEK293T overexpressing human CDH17-mGFP (FIG. 16)
Procedure: as §2

[18] = molecular target: T3, rat CDH17 fused to moxGFP, …; assay: flow cytometry on HEK293T rat CDH17mGFP mass population, 20 µg/ml
[19] = molecular target: T5, mouse CDH17-mGFP fusion protein overexpressed on HEK293T cells (mouse, UniProt Q9R100 26-827); assay: flow cytometry on HEK293T mouse CDH17mGFP mass population, 20 µg/ml
T5 construct: also called HEK293T Mouse CDH17mGFP mass; not shown: mGFP fluorescent protein
T5 sequence (Q9R100 26-827): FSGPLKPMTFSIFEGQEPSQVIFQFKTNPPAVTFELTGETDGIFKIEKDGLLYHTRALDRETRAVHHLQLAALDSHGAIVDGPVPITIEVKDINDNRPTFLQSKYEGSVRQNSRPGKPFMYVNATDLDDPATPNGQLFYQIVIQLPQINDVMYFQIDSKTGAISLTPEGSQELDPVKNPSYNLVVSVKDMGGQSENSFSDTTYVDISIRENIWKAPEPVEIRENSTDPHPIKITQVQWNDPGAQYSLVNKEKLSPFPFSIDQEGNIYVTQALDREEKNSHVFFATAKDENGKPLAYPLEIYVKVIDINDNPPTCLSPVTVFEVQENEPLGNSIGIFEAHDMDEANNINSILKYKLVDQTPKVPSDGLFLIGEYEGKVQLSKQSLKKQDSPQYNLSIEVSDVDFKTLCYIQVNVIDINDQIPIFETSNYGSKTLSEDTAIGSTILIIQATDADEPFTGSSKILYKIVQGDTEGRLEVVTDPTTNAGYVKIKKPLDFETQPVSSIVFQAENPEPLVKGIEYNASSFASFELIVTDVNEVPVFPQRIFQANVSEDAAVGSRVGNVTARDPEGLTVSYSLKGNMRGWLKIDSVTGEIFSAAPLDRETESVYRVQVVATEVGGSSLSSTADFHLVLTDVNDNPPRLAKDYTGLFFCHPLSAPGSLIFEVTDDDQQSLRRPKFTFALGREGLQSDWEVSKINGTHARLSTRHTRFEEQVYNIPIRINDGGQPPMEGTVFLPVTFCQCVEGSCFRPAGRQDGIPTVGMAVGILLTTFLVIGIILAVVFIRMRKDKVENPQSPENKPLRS

[20] = molecular target: T5, mouse CDH17-mGFP fusion protein …; assay: flow cytometry (BD C6) on HEK293T Mouse CDH17 mGFP cells
Procedure: as §1

[21] = molecular target: T1, human cadherin-17 (CDH17), endogenously …; assay: flow cytometry on LS513 cells (CDH17+), 20 µg/ml

ADC Binding Activity by Flow Cytometry [1]: 67400
B1: 07-0663-h7-VC-PAB-MMAE (antibody, human IgG1, kappa, DAR about 4, V domains shown)
VH: QVQLVQSGAEVKKPGSSVKISCKVSGYTFTDHTIHWMRQAPGQGLEWIGYIFPRDDIVVYAQKFQGRATLTADKSTSTAYMELSSLRSEDTAVYYCARPPYYYSRNFYFDYWGQGTTLTVSS
VL: DIQMTQSPSSLSASVGDRVTITCRVSSIISSSKLHWYQQKPGKAPKPLIYGTSTLASGVPSRFSGSGSGTDYTLTISSLQPEDFATYYCQQWSNYPFTFGQGTKLEIKR
modifications: MC-VC-PAB-MMAE on free thiols of cysteines from reduced interchain disulfides; positions not given; MC-VC-PAB-MMAE on free thiols of cysteines from reduced interchain disulfides; average 4 MMAE per antibody; positions not given

FL4-H [2]: 2.21e+06
B2: 07-0653-h43scFv anti-CDH17 scFv (scFv)
scFv: DIQLTQSPSSLSASVGDRVTITCRATSSLSYIHWYQQKPGKAPKPLIYEISKLASGVPSRFSGSGSGTDYTLTISSLQPEDFATYYCQQWNYPFTFGQGTKLEIKGGGGSGGGGSGGGGSQVQLVQSGAEVKKPGASVKVSCKASGYTFTDYYMNWVRQAPGQGLEWMGVIYPYSGGIGYAQKFQGRVTMTVDKSTSTAYMELSSLRSEDTAVYYCARGRGDYFGLFDFWGQGTTVTVSSHHHHHH
notes: VL-linker-VH; also called CDH17-653-h43scfv

FL4-H [2]: 2.05e+06
B3: 07-0663-h7scFv anti-CDH17 scFv (scFv)
scFv: DIQMTQSPSSLSASVGDRVTITCRVSSIISSSKLHWYQQKPGKAPKPLIYGTSTLASGVPSRFSGSGSGTDYTLTISSLQPEDFATYYCQQWSNYPFTFGQGTKLEIKGGGGSGGGGSGGGGSQVQLVQSGAEVKKPGSSVKISCKVSGYTFTDHTIHWMRQAPGQGLEWIGYIFPRDDIVVYAQKFQGRATLTADKSTSTAYMELSSLRSEDTAVYYCARPPYYYSRNFYFDYWGQGTTLTVSSHHHHHH
notes: VL-linker-VH

ADC Binding Activity by Flow Cytometry [1]: 35100
B4: 07-0653-h43-VC-PAB-MMAE (antibody, human IgG1, DAR about 4, V domains shown)
VH: QVQLVQSGAEVKKPGASVKVSCKASGYTFTDYYMNWVRQAPGQGLEWMGVIYPYSGGIGYAQKFQGRVTMTVDKSTSTAYMELSSLRSEDTAVYYCARGRGDYFGLFDFWGQGTTVTVSS
VL: DIQLTQSPSSLSASVGDRVTITCRATSSLSYIHWYQQKPGKAPKPLIYEISKLASGVPSRFSGSGSGTDYTLTISSLQPEDFATYYCQQWNYPFTFGQGTKLEIK
modifications: MC-VC-PAB-MMAE on free thiols of cysteines from reduced interchain disulfides; positions not given; MC-VC-PAB-MMAE on free thiols of cysteines from reduced interchain disulfides; average 4 MMAE per antibody; positions not given
notes: also called CDH17-ADC-653-h43; 07-0653-h43-MMAE

Kd [3]: 0.532 nM
Antibody Binding Activity by Flow iQue [4]: 181000
Antibody Binding Activity by Flow iQue [5]: 74900
Antibody Binding Activity by Flow iQue [6]: 50500
binding result [7]: no binding (tested: 1 µg)
Antibody Binding Activity by Flow iQue [8]: 2.86e+06
Antibody Binding Activity by Flow iQue [9]: 120000
Kd [10]: 0.817 nM
Kd [11]: 0.817 nM
Antibody Binding Activity by Flow iQue [12]: 2.66e+06
Antibody Binding Activity by Flow iQue [13]: 21400
Antibody Binding Activity by Flow iQue [14]: 95600
EC50 [15]: 0.73 nM
Cross Reactivity by Flow [16]: 50500
Kd [17]: < 1 nM
Cross Reactivity by Flow [18]: 2200
Cross Reactivity by Flow [19]: 2510
binding result [20]: no binding (tested: 1 µg)
Antibody Binding Activity by Flow Cytometry [21]: 47200
B5: humanized anti-CDH17 antibody 07-0646-h7 (antibody, human IgG1, V domains shown)
VH: QVQLVQSGAEVKKPGASVKMSCKASGYTFTSYNMHWVRQAPGQGLEWIGAIYPGNGDTSYAQKFQGRATLTVDTSTSTAYMELSSLRSEDTAVYYCARGRGRYFEYWGQGTTLTVSS
VL: DIQLTQSPSSLSASVGDRVTMTCRASSSVSSSYLHWYQQKPGKAPKLLIYSTSNLASGVPSRFSGSGSGTDYTLTISSVQPEDFATYYCQQYDSSPSTFGQGTKLEIK
notes: C-terminal lysine kept in the humanized antibodies; also called CDH17-646-h7; 07-646-h7

ADC Binding Activity by Flow Cytometry [1]: 73500
B6: 07-0646-h7-VC-PAB-MMAE (antibody, human IgG1, DAR about 4, V domains shown)
VH: B5 VH
VL: B5 VL
modifications: MC-VC-PAB-MMAE on free thiols of cysteines from reduced interchain disulfides; positions not given; MC-VC-PAB-MMAE on free thiols of cysteines from reduced interchain disulfides; average 4 MMAE per antibody; positions not given
notes: also called CDH17-ADC-646-h7; 07-0646-h7-MMAE

FL4-H [2]: 864000
B7: 07-0646-h7scFv anti-CDH17 scFv (scFv)
scFv: DIQLTQSPSSLSASVGDRVTMTCRASSSVSSSYLHWYQQKPGKAPKLLIYSTSNLASGVPSRFSGSGSGTDYTLTISSVQPEDFATYYCQQYDSSPSTFGQGTKLEIKGGGGSGGGGSGGGGSQVQLVQSGAEVKKPGASVKMSCKASGYTFTSYNMHWVRQAPGQGLEWIGAIYPGNGDTSYAQKFQGRATLTVDTSTSTAYMELSSLRSEDTAVYYCARGRGRYFEYWGQGTTLTVSSHHHHHH
notes: VL-linker-VH; also called CDH17-646-h7scfv; 07-0646-7scFv
